Laboratory results taken from PMC11266601.

Biological target: RDTND-RIDC/A (DUF1-RIDC/A, residues 1959–2901, C2838 to alanine), from the 6×His construct (V. vulnificus MO6-24/O)
Test: ITC

## Human calmodulin2 (CaM), 6×His/GST tag cleaved (from UniProt P0DP24 1-149) (natural protein)
  stoichiometry N: 1
